# According to the supplement of paper PMC12636428:
# Tested on: Saccharomyces cerevisiae
# Assay: transcriptional activation domain activity (GFP:mCherry ratio, weighted mean of sorted bins, harmonized to initial dataset scale) (arbitrary fluorescence ratio units); higher = stronger transcriptional activation
# Conditions: beta-estradiol 1 µM; induction time 4 h
# Outline: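 The listed activation activity is a read-weighted mean of bin median fluorescence, averaged across barcodes and linearly mapped onto the initial dataset scale. Barcoded tiles, fused to an estradiol-inducible synthetic transcription factor, were integrated at URA3 in yeast diploids bearing a GFP reporter. Cells were held 4 hours at 30 °C in SC with 1 uM beta-estradiol, sorted into 8 GFP:mCherry bins, and sequenced, and tiles with fewer than 50 reads were excluded.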
row,Sequence,transcriptional activation domain activity
1,MVRSGILKCELLQNLSTVYPTIYLVLCCYSIVFFFNACLSFLVLFMHFAFLVK,52800
2,AASAEDAVVGEKHKAEEPLDTNGDAKKAKVTNGNGEARKPGRPSKKDKKPQPT,23100
3,CLLGTGSFWGLVYISLAYMDGFAFKYLLQFHHIIKLLWISTVGGLIMIAFWSF,52900
4,GRNKRREKRPEEETTRQRRKGKREEQERRRTTKAGTKAEKRGEERRASGDANE,23100
5,MIHCMLLVGSTCPFFSLFLIAYFYDAIYDLAQFDMWSLLLCIYWDISPIFLFP,48100
6,RKSAATEEKEEKKEAPKAKRAKKAKEPEPEVEAEAEAAAEKVEEVKEKKKPGR,24800
7,MLWGDTQILVVLLHYILPTYQFPRFYFYYMYLPLRSWLLVDNPFLFSYSALIQ,63200
8,EHIEVDLTGIEEVTTGAGLLSRTRTSRHCFLHKTKVLQILDMKCTHDHPSPSS,29800
9,MILFFFAHRGLFLVYSASFCLCCDCLYFFLVYTFFFTLHNPFFLVPLFFSIIL,62900
10,MAKGGAKDKKSVEKKGADKGKGKSDEAADKGSKGKGGLKAATAVNVRHILCEK,23500
11,AAEKPAEEQPAETLVVEAKEVEEPKAAAKKGKKKAAKKEAEKVVEEQAVETPA,32500
12,MGCILIFSFFSFPTSIKKFLLLSFPFLSFPFPSLLFYLGFFSFLLYILQKFLV,58100
13,ILVMWTVISCPVFSFPDRGHGSMLFFLFKLCLVMLLTYLVTMLWFLCVFSIVV,52100
14,SSLTSIESMGSVMDESGEEEEEDVIYEVKRARTHSMEVQQARLVSWEGAGMKL,42300
15,WLLTFFTVDFLPNRDLRILLANWLNTLIHDPILKKHTDGLGIVRRLVKVAKEC,48400
16,RGKVVSRLRKVLQKTSFKPTRSLTDHWTWNEIAILIRFVLMLSFNNRGPVKSY,43200
17,ANQCGEVDMLSRILLIVVTYLVILRRYRDALDIIERQALPMTLALGRPLWIGR,62400
18,DCDIAQQQRFGAMFDDLLKSRETYFLRCSLSTWEIEHDVWWPFYLRSLEWCYF,50000
19,MEQTLATNQSLQPVKRVACNRCRTQKLKCNPSGEGRGSSSKCVRCAKAGTDCT,38900
20,MIHVPLIIFYIILNLFVAYLCLLIFSYYYRMIAQLLYNQCMIQMQPIIHQIKE,53500
21,FQTIHVDASCIGIASPLVHVELQPDLCGRKFPELIGIDLTAATLVRLLSLLCL,43000

row,Sequence,transcriptional activation domain activity
1,FNLYLLSWLHLLSSKSSSLGNSSAWWIRPVEITMMSCYWYIFGYLLLWCTLPT,38200
2,PLGTVGLAKLVFVKMFGGAKRITITLISAALLMMAVRFFSIAHPFLLADNRHY,62400
3,NVRYITNLSFTSDSVYKFLLFYPLFLIMTEPIIQLLGIYLAYIYGLIYLILTS,55800
4,MIGVCWVGGGIGVWCFCELTSSSFYPIDLVDFFFSFFCFLNFLLAFDFGLLLA,57000
5,ERPREKKEHSRRHRDDEEKGRRRRHRSRSRSRDRRERRRERSRSRERRRGGDE,13000
6,LLEMGLRWTLDAFGDSARMAGHIFHCLSNLEMTLPSYMYIQLLRSILKLPKTV,31000
7,TGAGTGAFGSTNNTTSNGGIFGSQPPATGNAFGGGGAFGQNKPATGFGAAPST,40200
8,GHGTHCSGTVAGKKYGVAKKANVYAVKVLRSNGSGTMSDVVKGVEYAAEQHSE,< 6570
9,VNFLGLMYAPLFVLSNFGAANCQHNALLFKFNMHAFFLCFDLFLLYKTWVVAQ,49900
10,IVLSVLCSLLNTTLKYNPATWRVPYDHVVFKDSRQILVSYCLQFLLVLILYPV,46600
11,LHYIYVVAISKSLSRLTLSYYTPAQLAMIGYFNLHIIWLKLMIPWRFFRLWSL,43200
12,MGIIIVVCVFFFLTGFLFTLVFLLSLWSLFVFFYFINFSFPLSFALLLLIFFL,40500
13,FGHVINEFVLSTFLTDQCHKIPQDTVNAYFEDCSTISTSQILMLLYILTFNDY,60700
14,LRWVLLPLCLFFSVCLEAHWPSISLAIVIIAYNELHMSSHWFLRGFCYAWGNA,36800
15,TPECLTKINWNVLRLSSYLSSVATSHFLELSTIIGITLIQLIWLLHPPCLLFL,45400
16,FSMTVGFTTAFSFLFLGYPTWGTRLWSFLPFWIGFYNLFVFLSKLDPIWAILF,48800
17,HKLALNLKTAWKGRKYEIPLFGVHIAGQYVSTYIFYEVASFKAFFNYIFSFTR,69100
18,RAKADAILRELQDTFFPSAAFRAWLTIVTKLIPLSCAVEARRFRPGLDYTLAT,77700
19,APMGRRTFAVDVDESGNSLAKKVKAARVKGYNYIIVVGERDLERGTAAVECVV,36000
20,MFKSFLGHSDQNTFFFFVLLLLLLCCHISLRAFFIFLSWIQLLYVLQWDECDK,47800
21,EVHLHIRKVYRHYDDLEHLGRRKFNFLTLVIRHLLDIVGIDSPWALFSRKPQQ,63000

row,Sequence,transcriptional activation domain activity
1,HNLFELVFLDQMCGFCCFSMRFVVMLDLIGTIILPSTVIYLVYIIIAAVLKFQ,38600
2,MLLTVYMFIIVCTCLAQLKIQSLSFLIYYHYINLVLLLLIAGLLYGLSFVRFS,48500
3,GNGKNKHTQRHRGGEKRNLPPSKKQRRKKKSRRIRHRKAQPHPDDEQLQDDKG,17000
4,PADDPQPAPATPKRRGRPPKNPKPAEEPKPAEEDPQPVPATTPKKRGRPPKAS,26100
5,MFGYDSSRSSCSFLLPRESSIRLMVYFLYLLRVFYLLFFVFHLFLLPSSLFFF,41200
6,FLSTFFIIPLDVMCRKAVLCCNKHFLPFLMVSMGPRFHSPHFSLNTFCHRLFF,47300
7,FWNLFNLVPGIQAQNLHCRYDYYPWGLSAFCQFLPIANAIGLTGSYTGIIYCC,33900
8,MADFVSIWLVVVVDYHFYIYIVFAREQLFRHFCLVSSALAVGLSLFWLMLCFG,68200
9,RTTSLGVWFLLIQFLWYGAFGVLYVWFFCQTFEYFNTLLVFDYILRFILCLMF,51200
10,LQLEMMEGIEDLDLEFDRMLDDFIIINFFIGNDFLPELPMLMVNDGAVPVILS,85100
11,VDTCRLSAPLVWWLTFGILCTMYLLVLEVILFGILVFMVLPFIMLLYSIMLLC,49100
12,MLQVALYMRSSSLIISIWPRLSCSRFLLVLQLIVFSFHCQLVYSIYLMLLAFS,58300
13,VRLVDIFLLKKYYLINLSLAYLSILLFPPPSPRPLYHLFSIYFFFFLFSSASP,45400
14,QAGSTGSSSRKRKKAVTDGEETPSTSEPRRLRRSHEACARCRSKKIKASACDS,28300
15,PSASLSFVSFFFFFLFLPLTFSSSYFFFLPFSSFPLFSSLSSTHIWSFLLSPL,39800
16,DGKTRRSKVRPRRGAPTGAAGSPAAAGSSKSDTEANSDKGAAGKKRKPRPARK,37100
17,GGLCAANFVAILITASVNIWTLLGNVYYSPLVNRCVCVARPEWMWTIWIFPLL,46700
18,MFGFIVVLLFSLPFFFTSSTTLSSFYFSFTFLVHFFLSYSLNVFLSFFVWFFF,58100
19,SLAFQVDFTRKYGMVGFFLFWMMSQEAHHDPLLLLLHSPLYFPIFLLFWVILN,68800
20,MLQQVPRVCIISIFWNISALWAAKRFEPMVSAYSLLSNVPYVLRLVCSWQPTE,32200
21,LSEPMAKNPYYYLCVLARIVVVKFAMLLRIIYGVYVPIYTYSAYCFLTDITLF,62900

row,Sequence,transcriptional activation domain activity
1,MGWGGASGFSPVVGIFFFTGPLLLFLSTVFLWIQAQFFPMMVCGLFCVFWLSF,60500
2,EQGDTPAKKKARKGASGTGRKRKTVGDDEAAGGNEQEGQPKKKARREKAAATE,29300
3,KVDNGRKVDNGGKVDGRKVDNGGKVDDGRSVNDRGRADKGGGVVKGGRLVEGG,24900
4,RMMREDYFPVARLFYCAFMLIHPHFEIPRFWQMGMHILHMLASLNYRPAILTM,68400
5,AASAASEPAPKKRGRPARAKEEVVAAEPEPAVEQPKKGRGRGRKAAEPEPVAV,18700
6,ITMQQIQRDSDKYLCIQGVFELFRSPLYTVLTLDKSVLGPTVLVRLLTVLAER,39400
7,GGKKKKAAAAVLETETEGEGEKENKSAEKGKAGSNGGGKKGKGKKGANGVANG,23400
8,MYCMRYFVPLLLLPFPDSPPIFVILFLISFFLHQKPCIYCTLLLFALFSSTCF,57700
9,SASKPAAVTDADEAARPVKKPARPSPGDEDKPEKKEESSRKIETQQPKKAAAQ,25500
10,FRAPYPCCLDVVFAMIWAGARVCLFDSTKALEDLLLARFVLPPHVVCLVGLAQ,48900
11,ILVHCIRLWTGFLVACFACLILLICLGACNLEMGIVVWSFCLISAGLHSVAVG,16500
12,SWRDPSYIYSKIGLCSTASLFLGLSFLNQPVSLQGVQNQIFSFFMLLVIQVFM,60200
13,KVVLTERLARGKAEIKDLQVCFECMSLVGMKINIFKGNGFMWTIACSVLFQKG,52100
14,PTGESLLDAYWKTLLGGITYGDPNGMEALFWDWYQGILPFRMLQLFHLDRVWF,48500
15,IVCRTEKTSHMLIDFSEHLRINVYVLGATFVRLVHLLKVKIPLVDPVLYIVRF,59900
16,STGLKPQDPSSDGLRKLALLNILLSGEEDVVSTIPAQRLVFLVKHLLECLKSD,24800
17,VTLVKRVDLFWYFVPNSVCWSCVVERSIALDVAERYLGRETNATPPWIRGLLP,32500
18,EVDAEAAEKPVKRLTRKARGVTEENQTSDAQSSRPAPVRRGRKPASVASTTAP,54700
19,VVKGDEVQIVRGSKKGAEGRVTQVYRKKWVIHVDRVERQKAKEQTVPVPVAAS,70900
20,MSEPPRKRAKLACVTCNARRVKCDVTERQPCGNCVAGKILCETRESKRGKHPR,33800
